Assays:
AS154 VHH [1] = biological target: T1, AS154 VHH (camel-derived); test: indirect ELISA, VHH coated
T1 construct: One of the 10 different camel-derived nanobodies; not shown: His tag (VHH-His)
Description: (§1) The ELISA plate was coated with 10 different VHHs at […] in 100 μl/well of PBS at 4° C. overnight, respectively; the plate was washed with PBS-T (0.05% Tween) and blocked with 200 μl/well of PBST containing 1% BSA at 37° C. for 0.5 hours; the blocking solution was aspirated and discarded, and 100 μl of 1 μg/ml purified antibodies were added to the first well, diluted in a 3-fold gradient for a total of 11 test concentration gradients and incubated at room temperature for 1 hour; the plate was washed three times with PBST and incubated with 100 μl/well of goat anti-rabbit IgG conjugated with horseradish peroxidase (GenScript Goat Anti-Rabbit IgG Antibody (H&L) [HRP], pAb; CAT #: A00098) at 37° C. for 0.5 hours; the plate was washed five times with PBST, and then a TMB color developing solution was added; and the plate was incubated in the dark at room temperature for 15 minutes. The reaction was stopped by adding 50 μl of 1 M HCl stop solution. The plate was read at 450 nm using a microplate reader; and the binding abilities of 15 clones to VHH-His were obtained (as shown in FIGS. 6a and 6b). […] On one hand, the affinities of the antibody of the same camel-derived nanobody to different camel-derived nanobodies were different; on the other hand, the affinities of different antibodies of camel-derived nanobodies to the same camel-derived nanobody were different. However, on the whole, all the 15 purified antibodies can be recognized with 10 different camel-derived nanobodies.

AS325 VHH = biological target: T2, AS325 VHH (camel-derived); test: indirect ELISA, VHH coated
T2 construct: One of the 10 different camel-derived nanobodies; not shown: His tag (VHH-His)
Description: as §1

AS656 VHH = biological target: T3, AS656 VHH (camel-derived); test: indirect ELISA, VHH coated
T3 construct: One of the 10 different camel-derived nanobodies; not shown: His tag (VHH-His)
Description: as §1

AS673 VHH = biological target: T4, AS673 VHH (camel-derived); test: indirect ELISA, VHH coated
T4 construct: One of the 10 different camel-derived nanobodies; not shown: His tag (VHH-His)
Description: as §1

AS587 VHH = biological target: T5, AS587 VHH (camel-derived); test: indirect ELISA, VHH coated
T5 construct: One of the 10 different camel-derived nanobodies; not shown: His tag (VHH-His)
Description: as §1

AS588 VHH = biological target: T6, AS588 VHH (camel-derived); test: indirect ELISA, VHH coated
T6 construct: One of the 10 different camel-derived nanobodies; not shown: His tag (VHH-His)
Description: as §1

AS200 VHH [2] = biological target: T7, AS200 VHH (camel-derived); test: indirect ELISA, VHH coated
T7 construct: One of the 10 different camel-derived nanobodies; not shown: His tag (VHH-His)
Description: as §1

AS988 VHH = biological target: T8, AS988 VHH (camel-derived); test: indirect ELISA, VHH coated
T8 construct: One of the 10 different camel-derived nanobodies; not shown: His tag (VHH-His)
Description: as §1

AS675 VHH [3] = biological target: T9, AS675 VHH (camel-derived); test: indirect ELISA, VHH coated
T9 construct: One of the 10 different camel-derived nanobodies; not shown: His tag (VHH-His)
Description: as §1

AS519 VHH = biological target: T10, AS519 VHH (camel-derived); test: indirect ELISA, VHH coated
T10 construct: One of the 10 different camel-derived nanobodies; not shown: His tag (VHH-His)
Description: as §1

[4] = biological target: T11, His-tag camel-derived nanobody AS718 VHH-His (camel-derived); test: indirect ELISA, AS718 VHH-His coated, hybridoma supernatant
T11 construct: Immunogen; recombinantly expressed with a C-terminal His tag; also called immunogen AS718; immunogen AS718 VHH-His; not shown: C-terminal His tag
Description: The rabbit spleen was extracted and homogenized to produce a single-cell suspension, and a single-cell suspension of myeloma cells was prepared at the same time. 1.0×10⁸ splenocytes were fused with 1.2×10⁵ myeloma cells by electrofusion; the fused cells were resuspended in 100 ml of DMEM/10% FBS culture medium containing hybridoma selective agents, thymidine, hypoxanthine and aminopterin, and transferred to a 150×96-well plate in a volume of 100 μl with a pipette; and the plate was incubated at 37° C. in 6% CO₂. After 9 days of incubation, the indirect ELISA was used to evaluate the binding ability of the antibody in the supernatant to VHH-His, indicating the presence of the antibody to VHH-His.
The ELISA plate was coated with 100 μl/well of 0.5 μg/ml VHH-His or His protein in PBS at 4° C. overnight; the plate was washed with PBS-T (0.05% Tween20) and blocked with 200 μl/well of PBST containing 1% BSA at 37° C. for 0.5 hours; the blocking solution was aspirated and discarded, and 100 μl of hybridoma cell culture supernatant was added to each well and then incubated at room temperature for 1 hour; after the incubation, the supernatant was discarded, and the plate was washed three times with PBST and incubated with 100 μl/well of goat anti-rabbit IgG conjugated with horseradish peroxidase (GenScript Goat Anti-Rabbit IgG Antibody (H&L) [HRP], pAb; CAT #: A00098) at 37° C. for 0.5 hours; the plate was washed five times with PBST, and then a TMB color developing solution was added; and the plate was incubated in the dark at room temperature for 15 minutes. The reaction was stopped by adding 50 μl of 1 M HCl stop solution. The plate was read at 450 nm using a microplate reader. In FIG. 3, by the mode of indirect ELISA, immunogen AS718 VHH-His was used to coat the ELISA detection plate, and the titers of the supernatant stock solutions of 15 parent clones were detected by OD450 reading, and the cross-reactions thereof with the His-tag protein were detected at the same time to exclude non-specific combinations. In the experiment, the positive serum was used as a positive control for immunogen AS718 VHH-His, and the Anti-His antibody was used as a positive control for detection target His-tag protein in the reverse screening. The detection value greater than 0.5 was determined to be positive, and the detection value less than 0.2 was determined to be negative.

AS154 VHH [5] = biological target: T1, AS154 VHH; test: SPR, Biacore 8K; VHH-His captured on anti-His antibody chip
Text: (§2) The camel-derived nanobody with the lowest affinity to the cloned antibody was AS587, and the affinity reached 2.2 nmol.

AS200 VHH [6] = biological target: T7, AS200 VHH; test: as above
Text: as §2

AS675 VHH [7] = biological target: T9, AS675 VHH; test: as above
Text: as §2

Measured: binding result

T7 sequence (VHH, as listed by the source): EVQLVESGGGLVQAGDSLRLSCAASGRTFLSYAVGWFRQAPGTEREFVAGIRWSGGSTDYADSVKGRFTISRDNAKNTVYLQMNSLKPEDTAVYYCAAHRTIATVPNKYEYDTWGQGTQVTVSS
T8 sequence (VHH, as listed by the source): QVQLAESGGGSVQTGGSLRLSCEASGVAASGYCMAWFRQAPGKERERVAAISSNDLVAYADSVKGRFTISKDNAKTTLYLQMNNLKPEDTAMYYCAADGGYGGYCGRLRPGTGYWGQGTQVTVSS
T1 sequence (VHH, as listed by the source): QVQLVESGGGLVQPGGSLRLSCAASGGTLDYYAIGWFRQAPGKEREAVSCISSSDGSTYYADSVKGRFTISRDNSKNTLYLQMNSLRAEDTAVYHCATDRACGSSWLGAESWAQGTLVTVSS
T11 sequence (VHH, as listed by the source): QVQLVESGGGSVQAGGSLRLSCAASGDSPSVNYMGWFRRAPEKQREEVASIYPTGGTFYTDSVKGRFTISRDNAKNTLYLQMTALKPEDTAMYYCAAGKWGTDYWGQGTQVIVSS
T6 sequence (VHH, as listed by the source): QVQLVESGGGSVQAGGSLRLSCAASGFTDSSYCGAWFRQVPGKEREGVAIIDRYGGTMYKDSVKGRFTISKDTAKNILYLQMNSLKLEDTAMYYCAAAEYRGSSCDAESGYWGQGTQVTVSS
T10 sequence (VHH, as listed by the source): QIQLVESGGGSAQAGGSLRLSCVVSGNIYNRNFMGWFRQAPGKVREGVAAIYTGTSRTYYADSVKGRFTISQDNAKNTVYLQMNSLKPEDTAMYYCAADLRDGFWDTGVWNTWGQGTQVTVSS
T5 sequence (VHH, as listed by the source): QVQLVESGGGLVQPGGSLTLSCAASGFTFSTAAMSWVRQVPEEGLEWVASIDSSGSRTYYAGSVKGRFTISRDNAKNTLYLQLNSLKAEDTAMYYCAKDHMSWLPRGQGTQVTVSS
T9 sequence (VHH, as listed by the source): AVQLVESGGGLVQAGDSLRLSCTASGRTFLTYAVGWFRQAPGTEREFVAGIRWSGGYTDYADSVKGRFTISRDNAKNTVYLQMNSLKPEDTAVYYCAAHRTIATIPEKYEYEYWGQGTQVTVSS
T2 sequence (VHH, as listed by the source): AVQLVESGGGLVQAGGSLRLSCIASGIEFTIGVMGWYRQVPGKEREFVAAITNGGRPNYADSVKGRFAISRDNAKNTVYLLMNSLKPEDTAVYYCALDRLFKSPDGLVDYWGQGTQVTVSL
T4 sequence (VHH, as listed by the source): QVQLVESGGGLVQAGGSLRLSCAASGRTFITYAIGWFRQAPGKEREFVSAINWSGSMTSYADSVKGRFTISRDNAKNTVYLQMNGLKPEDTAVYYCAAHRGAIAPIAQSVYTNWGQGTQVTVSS
T3 sequence (VHH, as listed by the source): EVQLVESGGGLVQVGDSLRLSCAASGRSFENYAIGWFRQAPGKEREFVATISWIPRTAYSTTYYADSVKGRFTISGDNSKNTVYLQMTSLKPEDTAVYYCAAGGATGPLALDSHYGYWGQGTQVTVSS

B1: R166.E3 (antibody, V domains shown)
VH: QSLEESGGRLVTPGTPLTLTCTVSGIDLSSCVLIWVRQAPEKGLEWIGFIYGSGNAYYANWAKGRFTISKTSSTTVDLKITSPTTEDTATYFCARSQEDDSFGYGFNLWGQGTLVTVSS
VL: AYDMTQTPASVEVAVGGTVTINCQASQSIGTYLSWYQQKPGQPPKLLIYRASTLTSGVSSRFKGSGSGTQFTLTISGVECADAATYYCQEGYSDINVNNIFGGGTEVVVKG
notes: Rabbit monoclonal; also called clone R166.E3
not listed: AS154 VHH [5] | AS200 VHH [6] | AS675 VHH [7]
binds: all other assays above

B2: R166.E5 (antibody, V domains shown)
VH: QSLEESGGRLVTPGTPLTLTCTASGFSLSGYYMIWVRQAPGKGLEYIGIVTSSGSTHYASWANGRFAISKTSSTTVDLKMPSLTTEDTATYFCAREGGWAFDLWGQGTLVTVSS
VL: QVLTQTPFSVSTAVGGTVTINCQSSESVANSNWLSWYQQKPGQPPKLLIYWASKLASGVPSRFSGSGSGTQFTLTISGVQCADAATYYCQGGYTSDRRAFGGGTEVVVKG
notes: Rabbit monoclonal; also called clone R166.E5
not listed: AS154 VHH [5] | AS200 VHH [6] | AS675 VHH [7]
binds: all other assays above

B3: R166.H9 (antibody, V domains shown)
VH: QSLEESGGRLVTPGTPLTLTCTASGFSLNNYNMIWVRQAPGEGLEWIGMIGDGDDAAWYASWAKGRFTISKTSTTVDLEVTSLTTEDTAIYFCARYLSFTRLDLWGQGTLVTVSS
VL: AVLTQTPSPVSAAVGGTVTINCQSSQSVYHNNWLAWYQQKPGQPPKLLIYGAATLASGVPSRFKGSGSGTQFTFTITDVQCDDVGTYYCAGVYNDDSENAFGGGTEVVVKG
notes: Rabbit monoclonal; also called clone R166.H9
not listed: AS154 VHH [5] | AS200 VHH [6] | AS675 VHH [7]
binds: all other assays above

B4: R166.A5 (antibody, V domains shown)
VH: QSVEESGGRLVTPGTPLTLTCTVSGFSLNNYTVIWVRQAPGKGLEWIGIIFGSGGTYYATWAEGRFTISRTSTTVDLKMTSPTTEDTATYFCARGYFGNTFWAMDPWGPGTLVTVSS
VL: NIVMTQTPASVSGAVGGTVTIKCQASQSISTYLSWYQQKPGQPPKLLIYQASELAYGVSSRFKGSGSGTEFTLTISGVECADAATYYCQQGYSDINVDNFFGGGTEVVVKG
notes: Rabbit monoclonal; also called clone R166.A5; antibody clone R166.A5
not listed: AS154 VHH [5] | AS200 VHH [6] | AS675 VHH [7]
binds: all other assays above

B5: R166.C5 (antibody, V domains shown)
VH: QSVEESGGRLVTPGTPLTLTCTVSGFSLRNFAMSWVRQAPGKGLEWIGIIYSGGTRDYATWAKGRFTISKTSTTVDLKMTSPTTEDTATYFCARDRSPDYSAAFLLWGQGTLVTVSS
VL: IVMTQTPSSKSVPVGDTVTINCQASESVYSNNHLAWFQQKPGQPPKLLIYSASTLESGVPSRFKGSGSGTQFTLTISGVQCDDAATYYCAGYKSSDTDGTSFGGGTEVVVKG
notes: Rabbit monoclonal; also called clone R166.C5; antibody clone R166.C5
binds: AS154 VHH [5] | AS200 VHH [6] | AS675 VHH [7]

B6: R166.H10 (antibody, V domains shown)
VH: QSLEESGGRLVTPGTPLTLTCTASGFSLSSYWMSWVRQAPGKGLEYIGIISGSGSTYYATWAKGRFTISKTSSTTVDLKITSPTTEDTATYFCARGNPHYSFGFNIWGPGTLVTVSL
VL: DIVMTQTPASVSEPVGGTVTINCQASESIYSWLSWYQQKPGQPPKLLIYSASYLASGVPSQFRGSGSGTEYTLTISDLECADAATYYCQYNYDSGDGITNGFGGGTEVVVKG
notes: Rabbit monoclonal; also called clone R166.H10
not listed: AS154 VHH [5] | AS200 VHH [6] | AS675 VHH [7]
binds: all other assays above

Source: patent publication US20220281997A1 (NANJING GENSCRIPT BIOTECH, published 2022)
